Measurements as given in the nanobody polyreactivity screen of Harvey et al. (2022).

Assay: yeast display, Sf9 membrane polyspecificity reagent, FACS + sequencing; frameworks hold sequencing errors
In short: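 Nanobodies from a synthetic yeast display library (Saccharomyces cerevisiae BJ5465), induced 36–48 hours with galactose, were stained 1 hour at 4 °C with 10% biotinylated, detergent-solubilized Sf9 membrane reagent, enriched on streptavidin microbeads, then FACS-sorted. Anti-HA (expression) and streptavidin (reagent binding) fluorescence set low and high (top ~1%) gates. Polyreactivity labels come from the gate of origin. Genes were colony-PCR amplified, MiSeq 2 × 250 sequenced and filtered by CDR length.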

| Sequence | polyreactivity (PSR sort gate) |
| --- | --- |
| QVQLVESGGGLVQAGGSLRLICAASGLTFRVYTMGWYRQAPGQERELVASISRSGASTYYADSVKGRFTISRDNAKNTVYLQMNSLKPEDTAVYYCNAVTSWPRRDFDYWGQGTQVTVSS | high polyreactivity |
| QVQLVESGGGLVQAGGSLRLSCAASGSTFYSYVMGGYRQAPGKERELVAAISKRGTSTYYADSVKGRFTISRDNAKYTVYLQMNSLKPEDNAVYYCAARPIVGVYPDIYDYWGHGTQVTVSS | low polyreactivity |
| QVQLVESGGGLVQAGGSLRLSCAASGRIFPRYAMGWYTQAPGKERELVAAITTGGSTYADSVKGRFTISRDNAKNTVYLQMNSLKPEDTAVYYCGVDGYVAFSPDRNNYWGQGTQVTVSA | low polyreactivity |
| QVQLVESGGGLVQAGGSHRLSCAASGITFYGNAMGWYRQAPGKERELVAGITSGGNTYYADSVKGRFTISRDNAKNTVYLQMNSLKPEDTAVYYCAAGYFSYRSYYYYRYDYWGQGTQVTVSS | high polyreactivity |
| QVQLVESGGGIVQAGGSLRLSCAASGFIFDQNAMGWYRQAPGKERELVAAISKRGGSTYYADSVKGRFTISRDNAKNTVYLQMNSLKREDTAVYYCATRSWGPYYYGYNHWGQGTQVTVSS | high polyreactivity |
| QVQLVESGGGLVQAGGSLRLSCAAAGTTFSHNTMGWYRQAPGKERELVAAITSGGTTYYADSVKGRFTISRDNAKNTVYLQMMSLKPEDTAVYYCAALRPRGGYYYWGQGTQVTVSS | high polyreactivity |
| QVQLVESGGGLVQAGGSLSLSCAASGSIFTHNAMGWYRQAPGKERELVAAISSGGSTNYADSVKGRFTISRDNAKNTVYLQMNSLKPEDTAVYYCAAGTQWYSQVYIYYYGGQGTQVTVSS | low polyreactivity |
| QVQLVESGGGLVQAGGSLRLSCAASGLTFDKNVMGWYRQAHGKERELVAAISRSGGTTYYADSVKGRFTISRDNAKYTVYLQMNSLKPEDTAVYYCAKRAWTGYGYYYWGQGTQVTVSS | high polyreactivity |
| QVQLVESGGGLVQAGGSLRLSCAASGIIFVYYAMGWYRQAPGKERELVAAISRSGGRTYYADSVKGRFTISRDNAKNTVYLQMNSLKPEDTAVYYCAAEVYKRYRYDYWGQGTQVTVSS | high polyreactivity |
| QVQLVESGGGLVQAGGSLRLSCAASGRTSVVHAMGWYRQAPGKERELVAAITSGGSTHYADSVKGRFTISRDNAKNTVYLQMNSLKPEDTAVYSCNARDRRRTNLLDYWGQGTQVTVSS | low polyreactivity |
| QVQLVESGGGLVQAGGSLRLSCAASGRTFYGNAMGWYRQAPGKEREFVAGISWRGGRTYYADSVKGRFTISRDNAKNTVYLQMNSLKPEDTAVYYCAASAGYRGRKQYHENGYWGQGTQVTVSS | high polyreactivity |
| QVQLVESGGGLVQAGGSLRLTCAASGLIFYDNMGWYRQEPGKQRELVAAITVSGGATYYADSVKGRFTISRDNAKNTVYLQMNSLKTEDTAVFYCARELLSPTYQRWYYYWGQGTQVTVSS | low polyreactivity |
| QVQLVESGGGLVQAGGRLRLSCAASGRIFVYYAMGWYRQAPGQERELVAAITYSVDSTYYADSVKGRFTISRDNAKNTVYLQMNSLKPEDTAVYYCATDVDWAYGYQYEYWGQGTQVTVSS | low polyreactivity |
| QVQLVESGGGLVQAGGSLRLTCAASGFIFAYYVMGWYRQAPGKERELVAAITSSDGITYYADSVKGRFTISRDNAKNTVYLQMNSLKPEDTAVYYCNADVYPDVGWRESDYWGQGTQVTVSS | low polyreactivity |
| QVQLVESGGGLVQAGGSLRLSCAASGRIFGSYAMGWYRQAPGKERELVASITSSGGSTYYADSVKGRFTISRDNAKNTVYLQMNSLKPEDTAVYYCAAGCAYLDAFYPYGYWGQGTQVTVSS | low polyreactivity |
| QVQLVESGGGLVQAGGTLRLSCAASGSIFWSYAMGWYRQAPGKEREFVASITGSGGTTTYADSVKGRFTISRDNAKNTVYLQMISLKPEDTAVYYCNARLHGWYHVYYIYDYWGQGTQVTVSS | low polyreactivity |
| QVQLVESGGGLVQAGGSLRLSCAAAGSIFGDYVMGWYRQAPGKERELVPANTSATSTYYADSVKGRFTISRDNAKNTVYLQMNSLKPEDTAVYYCNADATYPLWPNIWYDYDYWGQGTQVTVSS | low polyreactivity |
| QVQLVDSGRGLVQAGGSLRLSCAASGHIFLYYTMAWYRQAPGKERELVAGITIGGSTIYADSVKGRFTISRDNAKNSVYLQMNSMKPEDTAVYYCNVVNYVFIYSYWEYYYWGQGTEVTVSS | low polyreactivity |
| QVQLVESGGGLVQAGGSLRLSCAASGSIFTIYAMGWYRQAPGKERELVAAINRGDGTNYADSVKGRFTISRDNAKNTVYLQMNSLKPEDTAVYYCAAKAYTNYDRQVNLRRYYWGQGTQVTVSS | high polyreactivity |
| QVQLVESGGGLVQAGGSLRLSCAASGRIFTQYAMGWYRQAPGKERELVAAINASDGSTYYADSVKGRFTISRDNAKNTVYLQMNSLKPEDTAVYYCAGYAYNAIEYGYWGQGTQVTVSS | low polyreactivity |
| QVQLVESGGGLVQAGCSLRLSCAASGRTFYHYGMGWYRQAPGKERELVAAINFSGGSTNYADSVKGRFTISRDNAKNTVYLQMNSLKTEDTAVYNCNKEGRPDRDYWGQGTQVTVSS | low polyreactivity |
| QVQLVESGGGLVQAGGSLRLSCAASGYTFVVYAMGWYRQAPGKERELVARISSGGSTFYADSVKGRFTISRDNAKNTVYLQMNSLKPEDTAVYYCAAQWTRYRRRPMDYWGQGTQVTVSS | high polyreactivity |

| Sequence | polyreactivity (PSR sort gate) |
| --- | --- |
| QVQLVESGGGLVQAGGSLRLSCAASGSTFWYYAMGWYRQAPGKERELVADITYSGVSTYYADSVKGRFTISRDNAKNTVYLQMNSLKPEDTAVYYCNADWGSVNGYSGYYYWGQGTQVNVSS | low polyreactivity |
| QVQLVESGGGLVQAGGSLRLSCAASGRIFTFNAMGWYRQAPGKERELVAAINSGGSRTYYADSVKGRFTISRDNAKNTVYLQMNSLKPEDTAVYYCAAGYSGWVRSSSPFYYWGQGTQVTVSS | high polyreactivity |
| HVQLVESGGGLVQAGGSLRISCAASGRTLEQYAMGWYRQAPGKERELVAAINKSGARTYYADSVKGRFTISRDNAKNTVYLQMNSLKPEDTAVYYCNTVGPCYLFDYWGQGTQVTVSS | high polyreactivity |
| QVQLVESGGGLVQAGGSLRLSCAASGFTFYRNTMGWYRQAPGKERELVATITFSGTRTYYADSVKGRFTISRDNAKNTVYLQMNSLKPEDTAVYYCNRVRYRQSAFDFWGQGTQVTVSS | high polyreactivity |
| QVQLVESGGGLVQAGGSLRLSCAASGFIFDRYDMGWYRQAPGKERELVAAISYSGGSTYYADSVKGRFSISRDNAKNTVYFQMNSLKPEDTAVYYCATRVGYFYYEYSYDYWGQGTQVTVSS | low polyreactivity |
| QVQLVESGGGLVQAGGSLRLSCAASGSIFGWYAMGWYRQAPGKERELVASIRKSGGSTYYADSVKGRFTISRDNAKNTVYLQMNSLKPEDTAVYYCAAERYKNGAGQRKYAYDYWGQGTQVTVSS | high polyreactivity |
| QVQLVESAGGLVQAGASLRLSCAASGLIYRKYSMGWYRQAPGKERELVAAISSGGDTNYADSVKGLFTISRDNAKNTVYLQMNSLKPEDTAVYYCNADRKYWYGIALEYWGQGTQVTVSS | high polyreactivity |
| QVQLVESGGGLVQAGGSLRLSCAASGSIFFWYAMGWYRQAPGKERELVAAISRGGRTTYADSVKGRFTISRDNAKNTVYLQMNSLKPEDTAVYYCAAYRYFTYFYYSDYPYNYWGQGTQVTVSS | high polyreactivity |
| QVQLVESGGGLVQAGGSLRLSCAASGITFQWYAMGWYRQAPGKERELVAGISSGGSTYYADSVKGRFTISRDNAKNTVYLQMNSLKPEDTAVYYCAADYGWYSPFYPSYKYEYWGQGTQVTVSS | low polyreactivity |
| QVQLVESGGGLVQAGGSLRLSCAASGRTFTIYAMGWYRQAPGKERELVAAISSSSGSTYYADSVKGRFTISRDNAKNTVYLQMNSLKPEDTAVYYCAARTTYRSSKRYGYWGQGTQVTVSS | high polyreactivity |
| QVQLVESGGGLVQAGGSLRLSCAASGGTLEVYAMGWYRQAPGKEREFVAAISWSGGRTYYADSVKGRFTISRDNAKNTVYLQMNSLKPEDTAVYYCATRDRAGYYYWGQGTQVTVSS | high polyreactivity |
| QVQLVESGGGLVQAGGSLRLSCAASGRIFRRNTMGWYRQAPGKERELVAAITSSGGSTYADSVKGRFTISRDNAKNTVYLQMNSLTPEDTAVYYCATYVAYHRGYRTYDHWGQGTHVTVSS | low polyreactivity |
| QVQLVESGGGLVQAGGSLRLSCAASGRTFYRYAMGWYRQAPGKEREFVARITTSGGSTYYADSVKGRFTISRDNAKNTVYLEMNSLKPEDTAVYYCAASAPYIYYWGQGTQVTVSS | high polyreactivity |
| QVQLVESGGGLVQAGGSLRLSCAASGFTFVNYAMGWYRQAPGKERELVAASSRSGGRTYYADSVKGRFTISRDNAKNTVYLQKNSLKPEDTAVYYCARLLLSPEYGYWGQGTQVTVSS | high polyreactivity |
| QVQLVESGGGLVQAGGSLRLSCAASGRIFQYYAMGWYRQAPGKERELVAAITRSGGSTYYADSVNGRFTISRDNAKNTVYLQMNSLKPEDTAVYYCARTYWITNSKFRDYLGAYGGEYWGQGTQVTVSS | high polyreactivity |
| QVQLVESGGGLVQAGGSLRLSCAAYGSIFRKYVMGWYRQAHGKERELVAVISSGTGTYYADSVKGRFTISRDNAKNTVYLQMNSLNPEDTAVYYCAARVGRYGYSQYYYWGHGTQVTVSS | high polyreactivity |
| QVQLVESGGGLVQAGGSLRLSCAASGSIFYTNAMGWYRQAPGKERELVASIRTGGSTNYADSVKGRFTISRDNAKNTVYLQMNSLKPEDTAVYYCNADDPDYHGSIDDLDYDYWGQGTQVTVSS | low polyreactivity |
| QGQLVESGGGLVQAGGSLRLSCAASGRTFVDYDMGWYRQAAGKERELVADINSGGSTYYADSVKGRFTISRDNAKNTVYLQMNSLKREDSAVYYCAADDGWGYISSYDYEYWGQGTQVTVSS | high polyreactivity |
| QVQLVESGGGLVQAGGSLRLSCAASGSIFYIYAMGWYRQAPGKERELVAAITSSVGRTYYADSVKGRFTISRDNAKNTFYLQMNSLKAEDTAVYYCAADYYYSQVAYVYWGHGTQVTVSS | high polyreactivity |
| QVQLVESGGGLVQAGGSLRLSCAASGRTFAPYAMGWYRQAPGKERQLVAAISQRGGSTYYADSVKGRFTISRDNAKNTVYLQMNSLKPEDTAIYYCAATKYFYRLSSAFSFGTYGYWGQGTQVTVSS | low polyreactivity |
| QVQLVESGGGLVQAGGSLRLSCAASGLIYSYYVMGWNRQAPGKERELVPAINESGGRTYYADSVKGRFTISRDNAKNTVYLEMNSLKPEDTAVYYCAASVLNKIQGYRDYYCGQGTQVTVSS | low polyreactivity |
